# Measurements reported in publication PMC8542614 (Nature, 2021).
# Where two headings read alike, the source gives them in different places.
# B1: tamarin CD81 large extracellular loop (tCD81-LEL), residues 112-202, with plasmid-encoded N-terminal residues (domain or fragment)
# chain: GFVNKDQIAKDVKQFYDQALQQAVVDDDANNAKAVVKTFHETLNCCGSSTLSALTTSMLKNNLCPSGSSIISNLFKEDCHQKIDELFSGKL
# Tests used:
# [1] = target: T1, HCV E2 ectodomain (eE2), full length, residues 384-656, genotype J6 (HCV genotype J6, N-linked glycans (fully glycosylated)); assay: ITC
# [2] = target: T1, HCV E2 ectodomain (eE2), full length, …; assay: ITC; remark: listed apart in the source
binder,measurement,setting,value
B1,Kd,[1],37 nM
same,dH,[1],-12.3 kcal/mol
same,stoichiometry N,[1],0.57
same,Kd,[2],175 nM
same,dH,[2],-8.52 kcal/mol
same,stoichiometry N,[2],0.67
